Measurements taken from US11814435B2, “Therapeutic antibodies and their uses” (PFIZER INC., priority 2015, dated 2023).
Numbering of substitutions follows the chain as printed. Values belong to the molecule of their own block, whether it stands above or below them.

Experiments:
hBCMA (human BCMA) = target: T1, hBCMA (human BCMA) (Homo sapiens, UniProt Q02223); experiment: Kinetics and affinity of hBCMA/human IgG interactions by SPR (Bio-Rad Proteon XPR36); format: binding; conditions: huBCMA, 37° C.
T1 sequence (Q02223 1-184): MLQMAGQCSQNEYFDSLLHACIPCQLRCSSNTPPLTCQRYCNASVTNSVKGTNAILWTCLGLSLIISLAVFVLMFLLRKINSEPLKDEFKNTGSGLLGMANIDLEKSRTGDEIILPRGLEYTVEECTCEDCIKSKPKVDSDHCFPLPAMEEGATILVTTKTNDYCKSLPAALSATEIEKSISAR
Description: All experiments were performed on a Bio-Rad Proteon XPR36 surface Plasmon resonance biosensor (Bio-Rad, Hercules, Calif.). An array of anti-BCMA antibodies was prepared using an amine-coupling method on a Bio-Rad GLC Sensor Chip similar to that described in Abdiche, et al., Anal. Biochem. 411, 139-151 (2011). The analysis temperature for the immobilization was 25° C. and the running buffer was HBS-T+(10 mM HEPES, 150 mM NaCl, 0.05% Tween-20, pH 7.4). Channels were activated in the analyte (horizontal) direction by injecting a mixture of 1 mM ECD and 0.25 mM NHS for 3 minutes at a flow rate of 30 μL/min. IgGs were immobilized on the activated spots by injecting them in the ligand (vertical) direction at 20 μg/mL in 10 mM Acetate pH 4.5 buffer for 1.5 minutes at […]. The activated surfaces were blocked by injecting 1M ethanolamine, pH 8.5 in the analyte direction for 3 minutes at 30 μL/min.
The analysis temperature for the hBCMA binding analysis was 37° C. or 25° C. in a running buffer of HBS-T+, supplemented with 1 mg/mL BSA. A kinetic titration method was employed for the interaction analysis as described in Abdiche, et al. The hBCMA (human BCMA) analyte was injected in the analyte direction using a series of injections from low to high concentration. The concentrations used were 0.08 nM, 0.4 nM, 2 nM, 10 nM and 50 nM (a 5-membered series, with a 5-fold dilution factor and top concentration of 50 nM). The association time for a given analyte dilution was two minutes. Immediately after the 50 nM hBCMA injection, dissociation was monitored for 2 hours. Prior to the hBCMA analyte injections, buffer was injected 5 times using the same association and dissociation times at the hBCMA analyte cycles to prepare a buffer blank sensorgram for double-referencing purposes (double referencing as described in Myszka, J. Mol. Recognit. 12, 279-284 (1999).
The sensorgrams were double-referenced and fit to a 1:1 Langmuir with mass transport kinetic titration model in BIAevaluation Software version 4.1.1 (GE Lifesciences, Piscataway, N.J.). The sensorgrams and fits are shown in FIG. 1, and the kinetics and affinity parameters for various anti-BCMA antibodies of the present invention are shown in Tables 6A-6C.

cyBCMA = experiment: Kinetics and affinity of cyBCMA/human IgG interactions by SPR (Bio-Rad Proteon XPR36); format: binding, cynomolgus; conditions: 37° C.

ka (1/Ms) huBCMA @ 37° C. (hBCMA (human BCMA)): 2.42e+06 M⁻¹ s⁻¹
kd (1/s) huBCMA @37° C. (hBCMA (human BCMA)): 0.00193 s⁻¹
kd (1/s) cyBCMA @37° C. (cyBCMA): 0.00431 s⁻¹
B1: L3.PY/L1.AH/H2.YQ: anti-BCMA antibody (antibody, V domains shown)
VH: EVQLLESGGGLVQPGGSLRLSCAASGFTFGSYAMTWVRQAPGKGLEWVSAISYQGGNTFYADSVKGRFTISRDNSKNTLYLQMNSLRAEDTAVYYCARVSPIASGMDYWGQGTLVTVSS
VL: EIVLTQSPGTLSLSPGERATLSCRASQSVSAHYLAWYQQKPGQAPRLLIYGASSRATGIPDRFSGSGSGTDFTLTISRLEPEDFAVYYCQHYPYPPSFTFGQGTKVEIK
ka (1/Ms) cyBCMA @ 37° C. (cyBCMA): 1.58e+06 M⁻¹ s⁻¹

ka (1/Ms) huBCMA @ 37° C. (hBCMA (human BCMA)): 3.33e+06 M⁻¹ s⁻¹
kd (1/s) huBCMA @37° C. (hBCMA (human BCMA)): 0.00181 s⁻¹
kd (1/s) cyBCMA @37° C. (cyBCMA): 0.00439 s⁻¹
B2: L3.PY/L1.AH/H2.HA: anti-BCMA antibody (antibody, V domains shown)
VH: B1 VH with Y53H, Q54A
VL: B1 VL
ka (1/Ms) cyBCMA @ 37° C. (cyBCMA): 2.58e+06 M⁻¹ s⁻¹

ka (1/Ms) huBCMA @ 37° C. (hBCMA (human BCMA)): 3.16e+06 M⁻¹ s⁻¹
kd (1/s) huBCMA @37° C. (hBCMA (human BCMA)): 0.00123 s⁻¹
kd (1/s) cyBCMA @37° C. (cyBCMA): 0.00296 s⁻¹
B3: L3.PY/L1.AH/H2.LT: anti-BCMA antibody (antibody, V domains shown)
VH: B1 VH with Y53L, Q54T
VL: B1 VL
ka (1/Ms) cyBCMA @ 37° C. (cyBCMA): 2.19e+06 M⁻¹ s⁻¹

ka (1/Ms) huBCMA @ 37° C. (hBCMA (human BCMA)): 3.47e+06 M⁻¹ s⁻¹
kd (1/s) huBCMA @37° C. (hBCMA (human BCMA)): 0.00177 s⁻¹
kd (1/s) cyBCMA @37° C. (cyBCMA): 0.00421 s⁻¹
B4: L3.PY/L1.FF/H2.QR: anti-BCMA antibody (antibody, V domains shown)
VH: B1 VH with Y53G, Q54S, S63Q, V64R
VL: B1 VL with A31S, H32F, Y33F
ka (1/Ms) cyBCMA @ 37° C. (cyBCMA): 2.55e+06 M⁻¹ s⁻¹

ka (1/Ms) huBCMA @ 37° C. (hBCMA (human BCMA)): 3.68e+06 M⁻¹ s⁻¹
kd (1/s) huBCMA @37° C. (hBCMA (human BCMA)): 0.00134 s⁻¹
kd (1/s) cyBCMA @37° C. (cyBCMA): 0.00202 s⁻¹
B5: L3.PY/L1.PH/H3.AE: anti-BCMA antibody (antibody, V domains shown)
VH: B1 VH with Y53G, Q54S, S104A, G105E
VL: B1 VL with A31P
ka (1/Ms) cyBCMA @ 37° C. (cyBCMA): 2.61e+06 M⁻¹ s⁻¹

ka (1/Ms) huBCMA @ 37° C. (hBCMA (human BCMA)): 3.3e+06 M⁻¹ s⁻¹
kd (1/s) huBCMA @37° C. (hBCMA (human BCMA)): 0.00167 s⁻¹
kd (1/s) cyBCMA @37° C. (cyBCMA): 0.00341 s⁻¹
B6: L3.PY/L1.FF/H2.LT: anti-BCMA antibody (antibody, V domains shown)
VH: B1 VH with Y53L, Q54T
VL: B1 VL with A31S, H32F, Y33F
ka (1/Ms) cyBCMA @ 37° C. (cyBCMA): 2.19e+06 M⁻¹ s⁻¹

ka (1/Ms) huBCMA @ 37° C. (hBCMA (human BCMA)): 3.52e+06 M⁻¹ s⁻¹
kd (1/s) huBCMA @37° C. (hBCMA (human BCMA)): 0.00189 s⁻¹
kd (1/s) cyBCMA @37° C. (cyBCMA): 0.00376 s⁻¹
B7: L3.PY/L1.FF/H3.TAQ: anti-BCMA antibody (antibody, V domains shown)
VH: B1 VH with Y53G, Q54S, A97T, S104A, G105Q
VL: B1 VL with A31S, H32F, Y33F
ka (1/Ms) cyBCMA @ 37° C. (cyBCMA): 2.32e+06 M⁻¹ s⁻¹

ka (1/Ms) huBCMA @ 37° C. (hBCMA (human BCMA)): 3.82e+06 M⁻¹ s⁻¹
kd (1/s) huBCMA @37° C. (hBCMA (human BCMA)): 0.00263 s⁻¹
kd (1/s) cyBCMA @37° C. (cyBCMA): 0.00501 s⁻¹
B8: L3.PY/L1.FF/H3.AE: anti-BCMA antibody (antibody, V domains shown)
VH: B1 VH with Y53G, Q54S, S104A, G105E
VL: B1 VL with A31S, H32F, Y33F
ka (1/Ms) cyBCMA @ 37° C. (cyBCMA): 2.85e+06 M⁻¹ s⁻¹

ka (1/Ms) huBCMA @ 37° C. (hBCMA (human BCMA)): 4.14e+06 M⁻¹ s⁻¹
kd (1/s) huBCMA @37° C. (hBCMA (human BCMA)): 0.00271 s⁻¹
kd (1/s) cyBCMA @37° C. (cyBCMA): 0.005 s⁻¹
B9: L3.PY/L1.FF/H2.DY: anti-BCMA antibody (antibody, V domains shown)
VH: B1 VH with S52D, Q54S
VL: B1 VL with A31S, H32F, Y33F
ka (1/Ms) cyBCMA @ 37° C. (cyBCMA): 2.66e+06 M⁻¹ s⁻¹
